From patent CN117616043A (BIOGIC DESIGN LTD, dated 2024)
Residue numbers refer to the chain shown, from its start. One block for each binder: values may come before it.

Columns and labels:
hTSLP-His = hTSLP-His (human, UniProt Q969D9 29-159, limits assumed); test: cell-based or functional assay
重组人IL-13 (rh-IL-13) = 重组人IL-13 (rh-IL-13) (human, UniProt P35225 35-146); test: cell-based or functional assay
人TSLP (hTSLP) = target: T1, 人TSLP (hTSLP) (human, UniProt Q969D9 29-159); test: SPR and ELISA, conclusion of Example 3
T1 construct: also called rhTSLP

重组人IL-13 (rh-IL-13), sequence (P35225 35-146 limits assumed): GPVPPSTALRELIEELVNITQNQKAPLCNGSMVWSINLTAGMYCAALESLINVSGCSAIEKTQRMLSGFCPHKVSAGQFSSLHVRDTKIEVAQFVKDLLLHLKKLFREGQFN

- IC50 (MUTZ5细胞中TSLP依赖性pSTAT5活化的抑制) (hTSLP-His): 0.013 nM
- IC50 (IL-13信号传导级联抑制, HEK-Blue IL-4/IL-13, SEAP) (重组人IL-13 (rh-IL-13)): 1.3 nM
B1: BDG33.023 (antibody, V domains shown)
VH: QMQLVESGGGVVQPGRSLRLSCAASGFAFRTYGMHWVRQAPGKGLEWVAVIWYDGSNTHYADSVKGRFTITRDNSKNTLNLQMNSLRAEDTAVYYCARAPQWYLSAEAFDLWGQGTMVTVSS
VL: SYVLTQPPSVSVAPGQTARITCGGNLIGSKLVHWYQQKPGQAPVLVVYDDSDRPSRIPERFSGSNSGNTATLTISRVEAGDEADYYCQVWDHSSDHVVFGGGTKLTVL

- binding result (人TSLP (hTSLP)): binds
B2: BDG33.003 (antibody, V domains shown)
VH: B1 VH with A28T, T58K, Y103E, S105T, L111I
VL: B1 VL with R56L, H92S, H96G
notes: also called BGD33.003; 克隆C2

- IC50 (MUTZ-5细胞pSTAT5抑制) (hTSLP-His): ~0.035 nM
B3: BDG38.074 (antibody, V domains shown)
VH: B1 VH with Y53D, A97V, S105T
VL: SYVLTQPPSVSVAPGQTATITCGGNMIGAYLVHWYQQKPGQAPLLVVYDDVDRPNRIPERFSGSNSGNTATLTISRVEAGDEADYYCQVWDHNTDKMVFGGGTKLTVL

- IC50 (IL-13信号传导级联抑制, HEK-Blue IL-4/IL-13, SEAP) (重组人IL-13 (rh-IL-13)): 25 nM
B4: BDG33.025 (antibody, V domains shown)
VH: B1 VH with A28T, V50D, T58K, S105V, A108P
VL: B1 VL with R56L, H92S, H96G

- IC50 (MUTZ-5细胞pSTAT5抑制) (hTSLP-His): ~0.013 nM
B5: BDG38.079 (antibody, V domains shown)
VH: B1 VH with A97V, S105T
VL: B3 VL with Q16E, A29G, V47I, N55D, N93D, T94S, D95N, K96T
